{
  "source": "patent US7815907B2",
  "about": "“Antibodies to insulin-like growth factor I receptor” (Amgen Fremont Inc., priority 2001, dated 2010)",
  "molecules": {"B1": {"name": "2.14.3: human IgG2κ monoclonal antibody specific for IGF-IR from hybridoma 2.14.3 (ATCC PTA-2790) (antibody, V domains shown)", "VH": "GPGLVKPSETLSLTCTVSGGSISNYYWSWIRQPAGKGLEWIGRIYTSGSPNYNPSLKSRVTMSVDTSKNQFSLKLNSVTAADTAVYYCAVTIFGVVIIFDYWGQGTLVTVSS", "VL": "SSLSASVGDRVTFTCRASQDIRRDLGWYQQKPGKAPKRLIYAASRLQSGVPSRFSGSGSGTEFTLTISSLQPEDFATYYCLQHNNYPRTFGQGTEVEIIR"}, "B2": {"name": "2.12.1: human IgG2κ monoclonal antibody specific for IGF-IR from hybridoma 2.12.1 (ATCC PTA-2792) (antibody)", "heavy": "QAQLVESGGGLVKPGGSLRLSCAASGFTFSDYYMSWIRQAPGKGLEWVSYISSSGSTRDYADSVKGRFTISRDNAKNSLYLQMNSLRAEDTAVYYCVRDGVETTFYYYYYGMDVWGQGTTVTVSSASTKGPSVFPLAPCSRSTSESTAALGCLVKDYFPEPVTVSWNSGALTSGVHTFPAVLQSSGLYSLSSVVTVPSSNFGTQTYTCNVDHKPSNTKVDKTVERKCCVECPPCPAPPVAGPSVFLFPPKPKDTLMISRTPEVTCVVVDVSHEDPEVQFNWYVDGVEVHNAKTKPREEQFNSTFRVVSVLTVVHQDWLNGKEYKCKVSNKGLPAPIEKTISKTKGQPREPQVYTLPPSREEMTKNQVSLTCLVKGFYPSDIAVEWESNGQPENNYKTTPPMLDSDGSFFLYSKLTVDKSRWQQGNVFSCSVMHEALHNHYTQKSLSLSPGK", "light": "DIQMTQSPSSLSASVGDRVTFTCRASQDIRRDLGWYQQKPGKAPKRLIYAASRLQSGVPSRFSGSGSGTEFTLTISSLQPEDFATYYCLQHNNYPRTFGQGTEVEIIRTVAAPSVFIFPPSDEQLKSGTASVVCLLNNFYPREAKVQWKVDNALQSGNSQESVTEQDSKDSTYSLSSTLTLSKADYEKHKVYACEVTHQGLSSPVTKSFNRGEC"}, "B3": {"name": "4.17.3: human IgG2κ monoclonal antibody specific for IGF-IR from hybridoma 4.17.3 (ATCC PTA-2793); named as activating antibody (antibody, V domains shown)", "VH": "PGLVKPSETLSLTCTVSGGSISSYYWSWIRQPPGKGLEWIGYIYYSGSTNYNPSLKSRVTISVDTSKNQFSLKLSSVTAADTAVYYCARTYSSSFYYYGMDVWGQGTTVTVSS", "VL": "GDRVTITCRASQSISTFLNWYQQKPGKAPKLLIHVASSLQGGVPSRFSGSGSGTDFTLTISSLQPEDFATYYCQQSYNAPLTFGGGTKVEIK"}},
  "key": {"[1]": {"target": "T1, IGF-IR (Homo sapiens, UniProt P08069)", "experiment": "IGF-IR levels in 3T3/IGF-IR tumors by western blot after antibody and/or adriamycin", "assay_type": "in vivo, nude mice", "parameters": "expressed in transfected cells; host or cells: NIH-3T3 (mouse fibroblasts)", "conditions": "72 hours after single 250 μg 2.13.2 i.p. or 7.5 mg/kg adriamycin i.v.", "experimental": "Tumors were induced in nude mice as described in Example IX. Mice with established subcutaneous tumors of approximately 400 mm^3 were treated with a single injection of 250 μg 2.13.2 antibody (i.p.) or with 7.5 mg/kg adriamycin (i.v.), either as single agents or in combination, as described in Example IX. 72 hours after administration of the agents, tumors were extracted as described in Example VIII, and equal amounts of the tumor extracts were subjected to sodium […] polyacrylamide gel electrophoresis (SDS PAGE) and western blot analysis using the anti-IGF-IR antibody SC-713 (Santa Cruz). […] Each lane represents equal amounts of protein from individual tumors from individual mice."}, "[2]": {"target": "T2, extracellular domain of IGF-IR (Homo sapiens, UniProt P08069)", "T2 construct": "Different concentrations of the extracellular domain of IGF-IR were injected on the sensorchip", "experiment": "BIAcore affinity measurement, Protocol 1", "assay_type": "binding", "conditions": "BIAcore 3000; antibody captured on protein-A, IGF-IR extracellular domain injected", "experimental": "We performed affinity measures of purified antibodies by surface plasmon resonance using the BIAcore 3000 instrument, following the manufacturer's protocols.\nTo perform kinetic analyses, protein-A was immobilized on the sensorchip surfaces of the BIAcore. The sensorchip was then used to capture the anti-IGF-IR antibodies of the present invention. Different concentrations of the extracellular domain of IGF-IR were injected on the sensorchip and the binding and dissociation kinetics of the interactions between the anti-IGF-IR antibodies and the extracellular domain of IGF-IR were analyzed. The data were evaluated with global fit Langmuir 1:1, using baseline drift models available on the BIAevaluation software provided by BIAcore."}, "[3]": {"target": "T3, extracellular domain (ECD) of IGF-IR (Homo sapiens, UniProt P08069)", "T3 construct": "Different concentrations of the extracellular domain of IGF-IR were injected on the sensorchip", "experiment": "BIAcore competition (epitope mapping)", "assay_type": "binding", "conditions": "first antibody bound under saturating conditions", "description": "We conducted BIAcore competition studies to determine whether the antibodies of this invention bind to the same or distinct site on the IGF-IR molecule. We bound the extracellular domain (ECD) of IGF-IR to a BIAcore sensorchip as described above in Example II. We bound a first antibody of the invention to this sensorchip-bound IGF-IR under saturating conditions. We then measured the ability of subsequent secondary antibodies of the invention to compete with the primary antibody for binding to IGF-IR."}, "[4]": {"tested_on": "IGF-IR from the marmoset", "experiment": "Species crossreactivity by immunoprecipitation/Western blot", "assay_type": "binding", "conditions": "immunoprecipitation, antibody 1 μg/ml", "experimental": "(§1) To perform immunoprecipitation experiments, we plated cells in DMEM high glucose media supplemented with L-glutamine (0.29 mg/ml), 10% heat-inactivated FBS, and 500 μg/ml each of geneticin, penicillin and streptomycin to 50% confluence in T25 flasks. We then added 100 μl of an antibody of the invention in Hank's buffered saline solution (HBSS; Gibco BRL) at a concentration of 1 μg/ml. We incubated the plates for 30 minutes at 37° C. in an incubator and then stimulated the cells with IGF-I at 100 ng/ml for 10 minutes at room temperature. We lysed the cells in RIPA buffer (Harlow and Lane, supra) and immunoprecipitated IGF-IR with 2 μg of pan-specific SC-713 anti-IGF-IR antibody (Santa Cruz) plus protein A agarose beads for 1 hour at 4° C. We pelleted the beads and wash three times with PBS/T (PBS+0.1% Tween-20) and then boiled the beads in 40 μl Laemmli buffer containing 5% βME.\n(§2) The samples prepared as described above were then analyzed by Western blot. We loaded 12 μl of each sample per lane on 4-10% gradient Novex™ gels run with 1×MES buffer (Novex™). Gels were run at 150V for 1 hour or at 200V for approximately 30 minutes. We then transferred the gel to a membrane in Novex™ transfer buffer with 10% methanol either overnight at 100 mA or for 1-1.5 hours at 250 mA. We then allowed the membrane to dry completely and blocked at room temperature with TBS (Tris-buffered saline pH 8.0) containing Superblock (Pierce Chemical Co.). We added the IGF-IR blotting antibody SC713 (Santa Cruz) to detect immunoprecipitated IGF-IR."}, "[5]": {"tested_on": "Rhesus IGF-IR", "experiment": "Species crossreactivity by immunoprecipitation/Western blot", "assay_type": "binding", "conditions": "immunoprecipitation, antibody 1 μg/ml", "experimental": "as §1, §2"}, "[6]": {"tested_on": "canine IGF-IR", "experiment": "Species crossreactivity by immunoprecipitation/Western blot", "assay_type": "binding", "conditions": "immunoprecipitation, antibody 1 μg/ml", "experimental": "as §1, §2"}, "[7]": {"tested_on": "guinea pig IGF-IR", "experiment": "Species crossreactivity by immunoprecipitation/Western blot", "assay_type": "binding", "conditions": "immunoprecipitation, antibody 1 μg/ml", "experimental": "as §1, §2"}, "[8]": {"tested_on": "rabbit IGF-IR", "experiment": "Species crossreactivity by immunoprecipitation/Western blot", "assay_type": "binding", "conditions": "immunoprecipitation, antibody 1 μg/ml", "experimental": "as §1, §2"}, "[9]": {"tested_on": "COS7 IGF-IR", "experiment": "Species crossreactivity by immunoprecipitation/Western blot", "assay_type": "binding, old world monkey", "conditions": "immunoprecipitation, antibody 1 μg/ml", "experimental": "as §1\n(§3) The samples prepared as described above were then analyzed by Western blot. We loaded 12 μl of each sample per lane on 4-10% gradient Novex™ gels run with 1×MES buffer (Novex™). Gels were run at 150V for 1 hour or at 200V for approximately 30 minutes. We then transferred the gel to a membrane in Novex™ transfer buffer with 10% methanol either overnight at 100 mA or for 1-1.5 hours at 250 mA. […]"}, "[10]": {"target": "T1, IGF-IR", "experiment": "Species crossreactivity by immunoprecipitation/Western blot", "assay_type": "binding", "parameters": "on cells from a variety of animals; endogenous in cells", "conditions": "immunoprecipitation, antibody 1 μg/ml", "experimental": "as §1, §3"}},
  "data": [
    {"molecule": "COc1cccc2c1C(=O)c1c(O)c3c(c(O)c1C2=O)C[C@@](O)(C(=O)CO)C[C@@H]3O[C@H]1C[C@H](N)[C@H](O)[C@H](C)O1", "note": "[adriamycin, reference compound]", "values": [
      {"measurement": "IGF-IR levels in tumors, single agent", "setting": "[1]", "value": "little effect on IGF-IR levels"}
    ]},
    {"molecule": "B1", "values": [
      {"measurement": "Kd", "setting": "[2]", "value": 0.641, "unit": "nM"},
      {"measurement": "binding site on IGF-IR (competition between antibodies)", "setting": "[3]", "value": "bind to sites on IGF-IR that are different"}
    ]},
    {"molecule": "B2", "values": [
      {"measurement": "Kd", "setting": "[2]", "value": 7.37, "unit": "nM"},
      {"measurement": "binding to marmoset IGF-IR", "setting": "[4]", "value": "not"},
      {"measurement": "binding to Rhesus IGF-IR", "setting": "[5]", "value": "able to bind"},
      {"measurement": "binding to canine IGF-IR", "setting": "[6]", "value": "not"},
      {"measurement": "binding to guinea pig IGF-IR", "setting": "[7]", "value": "not"},
      {"measurement": "binding to rabbit IGF-IR", "setting": "[8]", "value": "not"},
      {"measurement": "binding to COS7 IGF-IR", "setting": "[9]", "value": "able to bind"},
      {"measurement": "binding to human IGF-IR", "setting": "[10]", "value": "able to bind"}
    ]},
    {"molecule": "B3", "values": [
      {"measurement": "Kd", "setting": "[2]", "value": 13, "unit": "nM"}
    ]}
  ]
}
